Source: patent US9937265B2, “Self-assembling peptide and polysaccharide complexes” (University of Leeds, priority 2013, dated 2018)

Tests used:
Format in all cases: physicochemical
[1] = Visual observation of gelation of peptide and peptide:GAG samples (systematic mixing study); details: for Gel appearance: 20 mg/ml (Table 3); for Time to gel 20 mg/ml / time to form a self-supporting gel (gelation time) / Gel lifetime 20 mg/ml / self-assembly and gelation: 20 mg/ml peptide; for c*gel: peptide alone
Description: Preparation of Peptide Solutions
Solutions of peptides were prepared directly in either D2O or H2O containing either 130 or 200 mM NaCl or PBS. Peptide concentrations in the millimolar range given for the NMR studies were values multiplied by an appropriate factor to account for the actual percentage peptide content. The samples were vortexed for 20 seconds, and then sonicated for 15 minutes. Solution pD was measured and adjusted to either 7.4 or 6.0±0.5 using a calibrated pH meter and the relation pD =pH meter reading +0.417. Any adjustment of pD, if necessary, was made with minimal μL volumes of either HCl or DCl and/or either NaOH or NaOD. Finally, solution vials were closed, sealed with PTFE tape, and then warmed to approximately 80° C. to maximise peptide solubility. Solutions were left to equilibrate at room temperature.
Preparation of Peptide:Glycosaminoglycan Gels.
The concentration of peptide was kept constant for each sample (20 mg/ml) and the molar ratio of GAG subunit to one peptide was increased. The samples were named by the number of GAG subunits to each peptide present e.g. P11-12:GAG 1:10=one P11-12 peptide monomer to ten GAG dimer subunits. GAG was added to peptide solutions after preparation as stated above. The mixtures were vortexed as heated again to ensure complete mixing.
The effects of mixing chondroitin sulphate GAG with the peptides were investigated. It was hypothesised that the charged GAG chains would interact electrostatically with the charged peptides. To establish whether such an interaction was possible, visual observations of a systematic mixing study was carried out and the morphology of the aggregates formed during mixing studied using TEM. • P11-4: […]

[2] = Rheological study of peptide and peptide:glycosaminoglycan gels (amplitude and frequency sweeps); details: for G′ at 2 Hz 20 mg/ml / G″ at 2 Hz 20 mg/ml: 2 Hz (walking frequency); for G′ at 2 Hz 20 mg/ml / G″ at 2 Hz 20 mg/ml / plateau elastic modulus G′N°: 25° C.; for J, lower limit of the distance between nearest cross links: calculated from plateau elastic modulus by rubber-like elasticity theory, T=298K; for plateau elastic modulus G′N° / Phase angle: peptide gels in PBS at 20 mg/ml; for Phase angle: 25° C. (Table 2)
Description: Rheological Study of Peptide:Glycosaminoglycan Gels
Measurements were performed using a cone-plate geometry (cone angle: 1°, diameter: 50 mm, gap: 0.033 mm). All the tests were performed at 25° C., utilizing a solvent trap and the atmosphere within was kept saturated to minimize evaporation of the peptide samples. To ensure the measurements were made in the linear viscoelastic regime (LVER), amplitude sweeps were performed in a shear strain controlled mode from 0.01-100%. Two amplitude sweeps were carried out for each sample (1 Hz and 20 Hz) and a strain level was chosen at which the elastic modulus (G′) and viscous modulus (G″) were independent of strain amplitude at the two different frequency levels. The dynamic moduli of the hydrogels were measured as a frequency function with the sweeps carried out between 1 and 20 Hz. Samples were allowed to equilibrate for 15 minutes once loaded prior to the start of testing. Fresh samples were used for the amplitude and frequency sweeps. After the frequency sweeps, two more amplitude weeps (1 Hz and 20 Hz) were carried out in a stress controlled mode to confirm the testing was performed within the LVER. The stress range was chosen based on the stress values from the frequency sweeps at 1 and 20 Hz: if these two values were then independent of stress amplitude, then this confirmed that testing was within the LVER.
Tests were conducted to provide a peptide gel of similar stiffness to that of the nucleus pulposus. Rheometry was carried out on the peptide gels in PBS at 20 mg/ml. Amplitude sweeps were first carried out to determine the LVER region.
The rheological properties of the peptide:GAG samples were examined and compared to the rheological properties of peptides alone to establish how the addition of GAG affected the material properties of the gels. The frequency sweeps from the study (data not shown) for the various peptide:GAG combinations can be summarized as follows: P11-4: GAG and viscous modulus vs. frequency, starting frequency 1 Hz, end frequency: 20 Hz, strain controlled: 0.15% (control), 0.175% (1:2) and 0.04% (1:10). Temp: 25° C. 20 days old. P11-8:GAG elastic and viscous modulus vs. frequency, starting frequency 1 Hz, end frequency: 20 Hz, Strain controlled: 0.1% (1:2 and 1:10), Temp: 25° C., 1.5 months old. P11-9:GAG elastic and viscous modulus vs. frequency, starting frequency 1 Hz, end frequency: 20 Hz, Strain controlled: 0.5%, Temp: 25° C. P11-12:GAG Elastic and viscous modulus vs. frequency, starting frequency 1 Hz, end frequency: 20 Hz, Strain controlled: 0.25% (1:0.5), 0.1% (1:2), 0.05% (1:10), 0.15% (1:100), Temp: 25° C. 1:0.5, 1:2 and 1:10 2 months old and 1:100 6 days old. • P11-4: […]

[3] = High resolution 1H-NMR study of peptide self-assembly as a function of concentration and time (c*); details: for c*: critical concentration for aggregation, physiological-like solution, with GAG estimated from monomer level at ~5000 μM total peptide
Description: High Resolution ^1H-NMR Study of Peptide Self-Assembly as a Function of Concentration
(2,2,3,3-d4)-trimethylsilyl-3-propionic acid (TMSP, chemical shift 0 ppm) an internal reference standard was added to all peptide solutions. NMR data were acquired at room temperature. A pre-saturation program was used to minimize the water peak, and 1024 scans were measured per spectrum. Sample spectra were recorded at various time-points after preparation to ensure the solutions had reached stable equilibrium. The aromatic multiplet at chemical shift 6.9-7.8 ppm was integrated, relative to the reference peak.
High resolution solution ^1H NMR was used to follow the self-assembly of the peptides in physiological-like solutions as a function of time. To measure self-assembly, the line width broadening of the NMR spectra is exploited. The population of peptide in an aggregated state gives rise to spectra that are so broad that they are lost in the baseline; in contrast, the population of peptide in monomeric state gives rise to high resolution spectra. By integrating the splitting pattern arising from the aromatic region and normalising it with respect to the peak observed due to a known standard, the fraction of monomer can be estimated.

[4] = Peptide dissolution from gel into supernatant (UV spectroscopy, 279 nm); details: at 3-4 days, 20 mg/ml gel
Description: 2.5 ml of 130 mM NaCl, D2O, pD 7.4 supernatant was added on top of the SAP:GAG gels. The concentration of peptide dissolved into the supernatant as a function of time was determined via UV spectroscopy. The UV wavelength of 279 nm corresponds to the […] of the tryptophan residue, found in position 6 of the SAP, and so this can be used to determine the molar concentration of the peptide taking into account the molar extinction coefficient of the tryptophan residue.

Substance	Gel appearance [1]	Time to gel 20 mg/ml [1]	time to form a self-supporting gel (gelation time) [1]	c*gel [1] [µM]	G′ at 2 Hz 20 mg/ml [2]	G″ at 2 Hz 20 mg/ml [2] [Pa]	J, lower limit of the distance between nearest cross links [2] [nm]	gel stiffness / moduli compared, in words ([2]; frequency sweeps, compared with peptide alone or other gels)	plateau elastic modulus G′N° [2]	Phase angle [2] [°]	time to reach equilibrium state of self-assembly ([3]; 1H NMR aromatic integral vs time, without GAG)	c* [3] [µM]	peptide dissolved from the gel [4] [%]	Gel lifetime 20 mg/ml ([1]; yr and mths or words printed in the cell)	gel state on storage ([1]; after a year)	self-assembly and gelation [1]	Gel lifetime 20 mg/ml ([1]; unit in cell beside) [mth]
CH3CO-S-S-R-F-O-W-O-F-E-S-S-NH2 (SSRFXWXFESS; HELM PEPTIDE1{[ac].S.S.R.F.[Orn].W.[Orn].F.E.S.S.[am]}$$$$V2.0; SMILES CC(=O)N[C@@H](CO)C(=O)N[C@@H](CO)C(=O)N[C@@H](CCCNC(=N)N)C(=O)N[C@@H](Cc1ccccc1)C(=O)N[C@@H](CCCN)C(=O)N[C@@H](Cc1c[nH]c2ccccc12)C(=O)N[C@@H](CCCN)C(=O)N[C@@H](Cc1ccccc1)C(=O)N[C@@H](CCC(=O)O)C(=O)N[C@@H](CO)C(=O)N[C@@H](CO)C(N)=O) [Peptide P11-12]	Cloudy self-	minutes	minutes	2300 ± 750	20,510 Pa	3067	7.2	forms the stiffest gel	22,285 kg m^−1s^−2	~9	around 1 month	2300 ± 750	39.9±9.15	–	–	–	–
CH3CO-Q-Q-R-F-O-W-O-F-E-Q-Q-NH2 (QQRFXWXFEQQ; HELM PEPTIDE1{[ac].Q.Q.R.F.[Orn].W.[Orn].F.E.Q.Q.[am]}$$$$V2.0; SMILES CC(=O)N[C@@H](CCC(N)=O)C(=O)N[C@@H](CCC(N)=O)C(=O)N[C@@H](CCCNC(=N)N)C(=O)N[C@@H](Cc1ccccc1)C(=O)N[C@@H](CCCN)C(=O)N[C@@H](Cc1c[nH]c2ccccc12)C(=O)N[C@@H](CCCN)C(=O)N[C@@H](Cc1ccccc1)C(=O)N[C@@H](CCC(=O)O)C(=O)N[C@@H](CCC(N)=O)C(=O)N[C@@H](CCC(N)=O)C(N)=O) [Peptide P11-8]	Inhomogenous	days	days	2000 ± 600	4,881 Pa	552	11.6	–	5,221 kg m^−1s^−2	~8	–	400 ± 100	–	Still some self-	–	–	–
CH3CO-S-S-R-F-E-W-E-F-E-S-S-NH2 (Ac-SSRFEWEFESS-NH2) [Peptide P11-9]	Clear self-	minutes	minutes	4500 ± 1500	8 Pa	5	–	–	–	–	–	1160 ± 175	–	–	still a self-supporting gel	–	–
CH3CO-Q-Q-O-F-O-W-O-F-O-Q-Q-NH2 (QQXFXWXFXQQ; HELM PEPTIDE1{[ac].Q.Q.[Orn].F.[Orn].W.[Orn].F.[Orn].Q.Q.[am]}$$$$V2.0; SMILES CC(=O)N[C@@H](CCC(N)=O)C(=O)N[C@@H](CCC(N)=O)C(=O)N[C@@H](CCCN)C(=O)N[C@@H](Cc1ccccc1)C(=O)N[C@@H](CCCN)C(=O)N[C@@H](Cc1c[nH]c2ccccc12)C(=O)N[C@@H](CCCN)C(=O)N[C@@H](Cc1ccccc1)C(=O)N[C@@H](CCCN)C(=O)N[C@@H](CCC(N)=O)C(=O)N[C@@H](CCC(N)=O)C(N)=O) [Peptide P11-14]	Clear liquid	never	–	–	–	–	–	–	–	–	–	>3600	–	–	–	does not self-assemble	–
CH3CO-O-Q-O-F-O-W-O-F-O-Q-O-NH2 [Peptide P11-28]	Clear liquid	never	–	–	–	–	–	–	–	–	–	>3100	–	–	–	does not self-assemble	–
CH3CO-Q-Q-R-F-E-W-E-F-E-Q-Q-NH2 (Ac-QQRFEWEFEQQ-NH2) [Peptide P11-4]	Slightly cloudy	mins-hours	hours	2000 ± 600	1,065 Pa	205	–	–	–	–	–	310 ± 140	–	–	–	–	>1
